The target in experiment [1] is LeuM3 on cells of tonsillar B cell preparations (human) (UniProt P08571). Kind of experiment: FACS staining of highly enriched tonsillar B cells.
Experiment [2] concerns the target CD3 on cells of tonsillar B cell preparations (human) (UniProt P07766). Kind of experiment: FACS staining of highly enriched tonsillar B cells, Donor 2.
Experiment [3] shares this target. Briefly: FACS staining of highly enriched tonsillar B cells, Donor 1.
Experiment [4] has the same target. Briefly: FACS staining of highly enriched tonsillar B cells.
Experiment [5] addresses human B7 antigen on cells (human) (UniProt P33681). Briefly: FACS of tonsillar B cells cultured for 5 days with immobilized anti-(IgM) antibodies and IL-2.
Experiment [6] shares this target. Briefly: FACS staining of highly enriched tonsillar B cells, Donor 2.
Experiment [7] shares this target. Kind of experiment: cell-based or functional assay.
Experiment [8] has the same target. Kind of experiment: FACS staining of highly enriched tonsillar B cells, Donor 1.
The target of experiment [9] is human CD40 on cells (human) (UniProt P25942). Briefly: FACS staining of highly enriched tonsillar B cells.
UniProt P25942, sequence (P25942 21-277): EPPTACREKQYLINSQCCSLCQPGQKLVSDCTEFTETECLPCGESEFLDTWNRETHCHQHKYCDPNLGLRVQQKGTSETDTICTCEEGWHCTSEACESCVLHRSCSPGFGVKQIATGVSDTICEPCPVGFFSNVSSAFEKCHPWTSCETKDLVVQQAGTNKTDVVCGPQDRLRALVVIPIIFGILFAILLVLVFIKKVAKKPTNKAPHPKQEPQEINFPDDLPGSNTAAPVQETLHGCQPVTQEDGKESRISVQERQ

UniProt P33681, sequence (P33681 35-288): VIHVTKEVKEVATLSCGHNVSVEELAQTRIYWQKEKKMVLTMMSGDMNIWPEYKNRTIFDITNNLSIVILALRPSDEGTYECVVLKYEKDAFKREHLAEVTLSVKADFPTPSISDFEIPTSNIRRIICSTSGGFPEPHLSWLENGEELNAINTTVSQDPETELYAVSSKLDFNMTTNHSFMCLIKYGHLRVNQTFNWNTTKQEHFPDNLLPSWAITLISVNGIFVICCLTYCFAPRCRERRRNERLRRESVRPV
UniProt P08571, sequence (P08571 20-345): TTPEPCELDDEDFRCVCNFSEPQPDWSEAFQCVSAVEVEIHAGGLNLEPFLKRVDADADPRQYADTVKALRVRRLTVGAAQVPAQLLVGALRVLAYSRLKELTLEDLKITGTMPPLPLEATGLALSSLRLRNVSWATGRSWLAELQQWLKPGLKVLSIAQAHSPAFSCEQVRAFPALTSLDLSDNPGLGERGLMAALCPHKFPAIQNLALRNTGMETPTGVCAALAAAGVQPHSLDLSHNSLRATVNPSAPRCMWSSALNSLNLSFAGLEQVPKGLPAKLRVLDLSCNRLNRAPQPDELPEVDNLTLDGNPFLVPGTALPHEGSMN

Substance anti-(LeuM3) monoclonal antibody yielded a % of Positive Cells in [1] of 2.5%.

On to anti-(CD3) monoclonal antibody OKT3, for which the % of Positive Cells in [2] stood at 2.1%; in experiment [3], 8%; in [4] it was 2.1%.

On to anti-B7 monoclonal antibody B7-24, for which the percentage of cells positive in experiment [5] worked out at 25 percent. The % of Positive Cells in experiment [6] amounted to 16.8%. In addition, in experiment [7], the T-cell proliferation in a secondary MLC; B7-24 0.025 µg/ml, CsA 3 x 10^-7 M (CPM (by the footnote)) was determined as 6; the T-cell proliferation in a secondary MLC; B7-24 0.025 µg/ml, CsA 6 x 10^-7 M (CPM (by the footnote)) stood at 6; the T-cell proliferation in a secondary MLC; B7-24 0.025 µg/ml, CsA 10^-7 M (CPM (by the footnote)) was found to be 6; the T-cell proliferation in a secondary MLC; B7-24 0.025 µg/ml, no CsA (CPM (by the footnote)) came out at 47. In [7], the T-cell proliferation in a secondary MLC; B7-24 0.25 µg/ml, CsA 3 x 10^-7 M (CPM (by the footnote)) was determined as 2; the T-cell proliferation in a secondary MLC; B7-24 0.25 µg/ml, CsA 6 x 10^-7 M (CPM (by the footnote)) is 3; the T-cell proliferation in a secondary MLC; B7-24 0.25 µg/ml, CsA 10^-7 M (CPM (by the footnote)) was 3; the T-cell proliferation in a secondary MLC; B7-24 0.25 µg/ml, no CsA (CPM (by the footnote)) worked out at 33. In experiment [7], this substance registered a T-cell proliferation in a secondary MLC; B7-24 2.5 µg/ml, CsA 3 x 10^-7 M (CPM (by the footnote)) of 3; a T-cell proliferation in a secondary MLC; B7-24 2.5 µg/ml, CsA 6 x 10^-7 M (CPM (by the footnote)) of 3; a T-cell proliferation in a secondary MLC; B7-24 2.5 µg/ml, CsA 10^-7 M (CPM (by the footnote)) of 3; a T-cell proliferation in a secondary MLC; B7-24 2.5 µg/ml, no CsA (CPM (by the footnote)) of 40. Besides, in experiment [7], the T-cell proliferation in secondary MLC; B7-24 0.025 µg/ml, CsA 3 x 10^-6M came to 939 CPM; the T-cell proliferation in secondary MLC; B7-24 0.025 µg/ml, CsA 3 x 10^-7M was determined as 1570 CPM; the T-cell proliferation in secondary MLC; B7-24 0.025 µg/ml, CsA 6 x 10^-6M worked out at 897 CPM; the T-cell proliferation in secondary MLC; B7-24 0.025 µg/ml, CsA 6 x 10^-7M was found to be 1590 CPM. In experiment [7], this substance showed a T-cell proliferation in secondary MLC; B7-24 0.025 µg/ml, CsA 10^-7M of 2820 CPM; a T-cell proliferation in secondary MLC; B7-24 0.025 µg/ml, no CsA of 29400 CPM; a T-cell proliferation in secondary MLC; B7-24 0.25 µg/ml, CsA 3 x 10^-6M of 545 CPM; a T-cell proliferation in secondary MLC; B7-24 0.25 µg/ml, CsA 3 x 10^-7M of 559 CPM. For the same substance, in [7], the T-cell proliferation in secondary MLC; B7-24 0.25 µg/ml, CsA 6 x 10^-6M stood at 553 CPM; the T-cell proliferation in secondary MLC; B7-24 0.25 µg/ml, CsA 6 x 10^-7M amounted to 788 CPM; the T-cell proliferation in secondary MLC; B7-24 0.25 µg/ml, CsA 10^-6M came out at 601 CPM; the T-cell proliferation in secondary MLC; B7-24 0.25 µg/ml, CsA 10^-7M came to 882 CPM. In experiment [7], this substance displayed a T-cell proliferation in secondary MLC; B7-24 0.25 µg/ml, no CsA of 20800 CPM; a T-cell proliferation in secondary MLC; B7-24 2.5 µg/ml, CsA 3 x 10^-6M of 609 CPM; a T-cell proliferation in secondary MLC; B7-24 2.5 µg/ml, CsA 3 x 10^-7M of 697 CPM; a T-cell proliferation in secondary MLC; B7-24 2.5 µg/ml, CsA 6 x 10^-6M of 971 CPM. Also, in [7], the T-cell proliferation in secondary MLC; B7-24 2.5 µg/ml, CsA 6 x 10^-7M worked out at 790 CPM; the T-cell proliferation in secondary MLC; B7-24 2.5 µg/ml, CsA 10^-6M amounted to 601 CPM; the T-cell proliferation in secondary MLC; B7-24 2.5 µg/ml, CsA 10^-7M was determined as 1160 CPM; the T-cell proliferation in secondary MLC; B7-24 2.5 µg/ml, no CsA amounted to 25200 CPM. In [8], this substance registered a % of Positive Cells of 12.6%.

As for anti-(CD40) monoclonal antibody G28.5, the % of Positive Cells in experiment [9] worked out at 92.1%.
